Data: article PMC2933840

Target: Flag-Lrp4-mCherry (mouse) (UniProt Q8VI56)
Assay: flow cytometry on cells

Chain of UniProt Q8VI56 (Q8VI56 21-1905): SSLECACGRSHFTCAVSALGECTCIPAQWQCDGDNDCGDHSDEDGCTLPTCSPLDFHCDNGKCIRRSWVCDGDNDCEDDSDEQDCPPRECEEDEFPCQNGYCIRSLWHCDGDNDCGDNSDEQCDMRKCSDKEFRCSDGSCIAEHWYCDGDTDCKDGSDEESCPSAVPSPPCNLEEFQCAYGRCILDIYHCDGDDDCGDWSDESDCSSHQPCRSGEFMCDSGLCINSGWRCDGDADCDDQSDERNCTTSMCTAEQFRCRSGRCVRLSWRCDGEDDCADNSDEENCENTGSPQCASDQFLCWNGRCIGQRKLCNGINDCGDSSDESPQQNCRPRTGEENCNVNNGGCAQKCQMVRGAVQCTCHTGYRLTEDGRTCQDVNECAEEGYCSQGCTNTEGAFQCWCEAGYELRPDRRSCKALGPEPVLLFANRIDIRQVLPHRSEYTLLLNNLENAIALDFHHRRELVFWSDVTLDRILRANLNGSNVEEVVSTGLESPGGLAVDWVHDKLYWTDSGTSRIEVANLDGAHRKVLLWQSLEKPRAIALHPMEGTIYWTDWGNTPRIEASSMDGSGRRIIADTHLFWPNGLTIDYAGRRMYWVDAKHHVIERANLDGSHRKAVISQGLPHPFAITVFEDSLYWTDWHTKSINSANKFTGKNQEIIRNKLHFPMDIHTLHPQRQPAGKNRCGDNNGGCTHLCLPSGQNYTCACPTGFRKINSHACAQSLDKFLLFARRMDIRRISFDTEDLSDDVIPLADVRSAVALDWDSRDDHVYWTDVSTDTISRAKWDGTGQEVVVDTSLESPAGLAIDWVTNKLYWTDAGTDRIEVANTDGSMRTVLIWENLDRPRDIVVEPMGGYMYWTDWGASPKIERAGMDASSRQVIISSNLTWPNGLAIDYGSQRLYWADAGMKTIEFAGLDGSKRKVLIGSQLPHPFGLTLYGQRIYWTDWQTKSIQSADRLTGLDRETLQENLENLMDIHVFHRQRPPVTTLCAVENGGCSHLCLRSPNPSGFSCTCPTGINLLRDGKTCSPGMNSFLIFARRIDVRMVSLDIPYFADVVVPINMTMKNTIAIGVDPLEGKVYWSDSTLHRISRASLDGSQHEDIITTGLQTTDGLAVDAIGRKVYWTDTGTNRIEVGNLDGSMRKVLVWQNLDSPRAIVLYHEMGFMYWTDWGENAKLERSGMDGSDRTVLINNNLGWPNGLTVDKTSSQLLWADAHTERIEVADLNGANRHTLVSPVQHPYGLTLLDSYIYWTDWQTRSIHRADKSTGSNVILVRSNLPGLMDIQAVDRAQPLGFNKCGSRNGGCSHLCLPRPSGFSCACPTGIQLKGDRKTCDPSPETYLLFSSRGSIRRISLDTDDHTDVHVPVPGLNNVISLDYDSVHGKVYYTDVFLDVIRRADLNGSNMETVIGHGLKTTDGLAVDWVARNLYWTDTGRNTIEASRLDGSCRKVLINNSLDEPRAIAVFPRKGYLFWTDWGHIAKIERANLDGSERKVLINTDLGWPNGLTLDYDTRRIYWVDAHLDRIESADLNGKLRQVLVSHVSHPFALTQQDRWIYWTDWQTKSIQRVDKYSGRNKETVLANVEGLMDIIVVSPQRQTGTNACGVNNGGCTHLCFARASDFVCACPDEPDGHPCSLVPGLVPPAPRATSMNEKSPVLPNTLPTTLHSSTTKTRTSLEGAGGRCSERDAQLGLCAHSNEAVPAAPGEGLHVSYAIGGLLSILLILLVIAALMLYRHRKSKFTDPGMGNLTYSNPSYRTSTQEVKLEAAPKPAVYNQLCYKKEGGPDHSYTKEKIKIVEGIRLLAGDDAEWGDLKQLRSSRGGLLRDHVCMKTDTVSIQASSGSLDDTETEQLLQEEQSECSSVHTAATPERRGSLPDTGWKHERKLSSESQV

| Substance | fold higher affinity of Agrin B8 than of Agrin B0 [fold] | EC50 [nM] | fold increase of binding with calcium against without calcium [fold] |
| --- | --- | --- | --- |
| 50 kd C-terminal fragment of Agrin B0 (domain or fragment) | 100 | – | – |
| 50 kd C-terminal fragment of Agrin B8 (domain or fragment) | – | 6 | 20 |
